Experimental findings from patent US20240117012A1 (KAO, published 2024) are described below.

The target in test [1] is T1, SARS-CoV-2 Nucleocapsid-Fc fusion protein (SARS-CoV-2, UniProt P0DTC9 1-419).
T1 construct: also called Fc-tagged N-protein
The test is described as follows: CoVHH-N2.

The target in test [2] is T1, SARS-CoV-2 Nucleocapsid-Fc fusion …. The experiment in a line: CoVHH-N1.
For test [3] the target is unchanged.

Read-outs that look alike come from different tables or passages of the source.

B1: His-tagged CoVHH-N2 (VHH)
VHH: EVQLVESGGGSVQAGGSLTLSCAASGFTFDDHAVGWFRQAPGKGLEWVSAISGDGYTTVYADSVKGRFTISRDNAKKTVYLQMNSLKAEDTAVYYCNAFRTDIVREYWGQGTQVTVSS
notes: also called CoVHH-N2 (His-tagged)
In test [1], B1 showed a Kd of 2.09 nM, a koff of 0.0009 s⁻¹ and a kon of 430000 M⁻¹ s⁻¹.

B2: His-tagged CoVHH-N1 (VHH)
VHH: EVQLVESGGAVVQPGGSLRLSCEASGFPFTKFWMYWVRRAPGKGLEWVAFIDTTGTITNYASSVKGRFTISRDDARNMVYLQMNDLRPEDTAIYYCATGPPGSTWVVDFHSWGQGTQVTVSS
notes: also called CoVHH-N1 (His-tagged)
Take B2: in test [2], the koff turned out to be 0.0017 s⁻¹ and the kon was determined as 3.02e+06 M⁻¹ s⁻¹. Further, the Kd in test [3] is 0.564 nM.
